Measured values reported in patent US20260191981A1 (ARROWHEAD PHARMACEUTICALS, published 2026).
Positions count from the first letter of the chain named.

B1: Fab0061-siRNA conjugate (Fab, V domains shown)
VH: EVQLVESGGGLVQPGGSLRLSCATSGYTFTSYWMHWVRQAPGKGLEWVAEINPTNGRVNYIEKFKSRITLSVDKSKSTVYLQMNSLRAEDTAVYYCARGTRAYHYWGQGTLVTVSS
VL: DIQLTQSPSSLSASVGDRVTITCRASDGLYSNLAWYQQKPGKAPKLLIYDATKLASGVPSRFSGSGSGTDYTLTISSLQPEDFATYYCQHFWGTPLTFGQGTKVEIKR
modifications: siRNA-linker on a reduced cysteine; chain and residue not stated
notes: also called Fab0061 (BLI conjugate columns)
B2: Fab0002-siRNA conjugate (Fab, V domains shown)
VH: EVQLVQSGAEVKKPGASVKVSCKASGYTFTSYWMHWVRQAPGQRLEWIGEINPTNGRTNYIEKFKSRATLTVDKSASTAYMELSSLRSEDTAVYYCARGTRAYHYWGQGTMVTVSS
VL: B1 VL with L4M, G28N, A43S, I48V, K53N, S56D
modifications: siRNA-linker on a reduced cysteine; chain and residue not stated
notes: also called Fab0002 (BLI conjugate columns)
B3: Fab0068-siRNA conjugate (Fab, V domains shown)
VH: B1 VH with M34V
VL: B1 VL
modifications: siRNA-linker on a reduced cysteine; chain and residue not stated
notes: also called Fab0068 (BLI conjugate columns)
B4: Fab0063-siRNA conjugate (Fab, V domains shown)
VH: B1 VH
VL: B1 VL with K53R
modifications: siRNA-linker on a reduced cysteine; chain and residue not stated
notes: also called Fab0063 (BLI conjugate columns)
B5: Fab0072-siRNA conjugate (Fab, V domains shown)
VH: B1 VH with T30N, V58F
VL: B1 VL with G28N, S31R, T52R, K53N
modifications: siRNA-linker on a reduced cysteine; chain and residue not stated
notes: also called Fab0072 (BLI conjugate columns)
B6: Fab0062-siRNA conjugate (Fab, V domains shown)
VH: B1 VH
VL: B1 VL with T52F, K53N
modifications: siRNA-linker on a reduced cysteine; chain and residue not stated
notes: also called Fab0062 (BLI conjugate columns)
B7: Fab0069-siRNA conjugate (Fab, V domains shown)
VH: B1 VH with M34V, V58S
VL: B1 VL
modifications: siRNA-linker on a reduced cysteine; chain and residue not stated
notes: also called Fab0069 (BLI conjugate columns)
B8: Fab0065-siRNA conjugate (Fab, V domains shown)
VH: B1 VH with M34V, V58S
VL: B1 VL with G28N, S31R
modifications: siRNA-linker on a reduced cysteine; chain and residue not stated
notes: also called Fab0065 (BLI conjugate columns)
B9: Fab0064-siRNA conjugate (Fab, V domains shown)
VH: B1 VH
VL: B1 VL with T52K, K53N
modifications: siRNA-linker on a reduced cysteine; chain and residue not stated
notes: also called Fab0064 (BLI conjugate columns)
B10: Fab0067-siRNA conjugate (Fab, V domains shown)
VH: B1 VH with M34V, V58T
VL: B1 VL with G28N, S31R
modifications: siRNA-linker on a reduced cysteine; chain and residue not stated
notes: also called Fab0067 (BLI conjugate columns)
B11: Fab0070-siRNA conjugate (Fab, V domains shown)
VH: B1 VH with Y27F, V58T
VL: B1 VL with G28K, K53L
modifications: siRNA-linker on a reduced cysteine; chain and residue not stated
notes: also called Fab0070 (BLI conjugate columns)
B12: Fab0074-siRNA conjugate (Fab, V domains shown)
VH: B1 VH with T30K, V58T
VL: B1 VL with T52K, K53N
modifications: siRNA-linker on a reduced cysteine; chain and residue not stated
notes: also called Fab0074 (BLI conjugate columns)
B13: Fab0066-siRNA conjugate (Fab, V domains shown)
VH: B1 VH with M34V
VL: B1 VL with T52F, K53N
modifications: siRNA-linker on a reduced cysteine; chain and residue not stated
notes: also called Fab0066 (BLI conjugate columns)
B14: Fab0060-siRNA conjugate (Fab, V domains shown)
VH: B1 VH with M34V, V58T
VL: B1 VL
modifications: siRNA-linker on a reduced cysteine; chain and residue not stated
notes: also called Fab0060 (BLI conjugate columns)
B15: Fab0073-siRNA conjugate (Fab, V domains shown)
VH: B1 VH with T30K, V58T
VL: B1 VL with G28N, S31R
modifications: siRNA-linker on a reduced cysteine; chain and residue not stated
notes: also called Fab0073 (BLI conjugate columns)
B16: Fab0071-siRNA conjugate (Fab, V domains shown)
VH: B1 VH with T30N, V58T
VL: B1 VL with T52R, K53N
modifications: siRNA-linker on a reduced cysteine; chain and residue not stated
notes: also called Fab0071 (BLI conjugate columns)

The binders below were run against T1, biotinylated hTfR1 (Acro Bio p/n TFR-H82E5) (human, UniProt P02786 89-760, biotinylated; site not stated) (assay: BLI, Octet RH16, biotinylated TfR1 on streptavidin sensor; Fab-siRNA conjugate).
T1 construct: Bought reagent of the BLI assay
T1 sequence (P02786 89-760 limits assumed): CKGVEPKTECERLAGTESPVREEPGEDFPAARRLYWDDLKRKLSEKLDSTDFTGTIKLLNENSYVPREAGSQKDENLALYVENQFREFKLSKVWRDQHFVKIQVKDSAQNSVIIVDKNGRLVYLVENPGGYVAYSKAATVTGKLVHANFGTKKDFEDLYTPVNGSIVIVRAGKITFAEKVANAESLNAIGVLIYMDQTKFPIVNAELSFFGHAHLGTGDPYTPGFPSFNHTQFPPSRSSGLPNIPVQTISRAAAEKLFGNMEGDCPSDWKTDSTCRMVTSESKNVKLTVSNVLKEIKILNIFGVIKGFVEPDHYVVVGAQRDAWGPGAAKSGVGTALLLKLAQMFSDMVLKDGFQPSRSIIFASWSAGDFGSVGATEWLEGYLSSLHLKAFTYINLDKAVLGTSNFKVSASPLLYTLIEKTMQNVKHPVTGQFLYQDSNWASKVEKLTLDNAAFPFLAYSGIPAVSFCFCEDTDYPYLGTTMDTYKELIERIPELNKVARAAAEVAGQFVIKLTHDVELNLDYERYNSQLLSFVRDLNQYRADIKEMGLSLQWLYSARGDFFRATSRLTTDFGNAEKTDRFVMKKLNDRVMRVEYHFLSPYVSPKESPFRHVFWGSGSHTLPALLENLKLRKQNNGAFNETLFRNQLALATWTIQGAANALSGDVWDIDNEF
Description: Samples were analyzed via Bio-Layer Interferometry (BLI) to determine kinetics against human transferrin receptor 1 (hTfR1). Briefly, an Octet RH16 (Sartorius) was used for BLI measurements using streptavidin biosensors (Sartorius p/n 18-5019) to irreversibly immobilize biotinylated hTfR1 (Acro Bio p/n TFR-H82E5). […] Sample diluent was prepared in house and is composed of 10 mM PBS pH 7.4 (150 mM NaCl), 0.01% BSA, 0.002% Tween 20, and 0.01% kathon. A 96-well plate was used for analysis, filled with required samples solutions and a row of 10 μg/mL hTfR1 for loading of the streptavidin sensors. For each sample, one well was reserved for a reference sensor control (non-specific binding evaluation with no hTfR1 on surface in highest sample concentration) and a sample reference (buffer only on a hTfR1 loaded sample). One well was also reserved for a second replicate of one of the five concentrations to evaluate sensor and method variability. Eight channels were used for the highest sensitivity offered by the Octet RH16. For each assay performed, the steps were as follows: a sensor check for baseline evaluation of sensor alone in buffer was performed for 30 seconds, followed by loading of the cTfR1 for 60 seconds, then a baseline check for 90 seconds to verify stability of cTfR1 immobilized to sensor surface, then sample association for 180 seconds, and finally sample dissociation for 300 seconds. A shake speed of 1000 was used for all steps. Sample results are analyzed in Octet Analysis software.
B1 showed a Kd of 1.9 nM, a koff of 0.000527 s⁻¹ and a kon of 278000 M⁻¹ s⁻¹.
Binder B2 has a Kd of 16.7 nM, a koff of 0.00349 s⁻¹ and a kon of 209000 M⁻¹ s⁻¹.
B3 was tested, and the Kd was 1.69 nM, the koff was 0.000432 s⁻¹ and the kon was 256000 M⁻¹ s⁻¹.
In the case of B4, the Kd is reported as 2.72 nM, the koff is reported as 0.000775 s⁻¹ and the kon is reported as 285000 M⁻¹ s⁻¹.
For B5, the Kd was 0.898 nM, the koff was 0.000262 s⁻¹ and the kon was 292000 M⁻¹ s⁻¹.
B6 gave a Kd of 4.47 nM, a koff of 0.00123 s⁻¹ and a kon of 275000 M⁻¹ s⁻¹.
With B7 the Kd was 5.45 nM, the koff was 0.00164 s⁻¹ and the kon was 301000 M⁻¹ s⁻¹.
In the case of B8, the Kd is reported as 2.64 nM, the koff is reported as 0.00082 s⁻¹ and the kon is reported as 310000 M⁻¹ s⁻¹.
With B9 the Kd was 1.44 nM, the koff was 0.000393 s⁻¹ and the kon was 273000 M⁻¹ s⁻¹.
B10 gave a Kd of 0.623 nM, a koff of 0.000167 s⁻¹ and a kon of 268000 M⁻¹ s⁻¹.
B11 was tested, and the Kd was 3.71 nM, the koff was 0.000974 s⁻¹ and the kon was 263000 M⁻¹ s⁻¹.
B12 gave a Kd of 2.78 nM, a koff of 0.000793 s⁻¹ and a kon of 286000 M⁻¹ s⁻¹.
B13 gave a Kd of 1.81 nM, a koff of 0.000469 s⁻¹ and a kon of 259000 M⁻¹ s⁻¹.
Work on B14 yielded a Kd of 3.65 nM, a koff of 0.00109 s⁻¹ and a kon of 298000 M⁻¹ s⁻¹.
Binder B15 has a Kd of 2.1 nM, a koff of 0.000615 s⁻¹ and a kon of 292000 M⁻¹ s⁻¹.
B16 gave a Kd of 2.67 nM, a koff of 0.000716 s⁻¹ and a kon of 268000 M⁻¹ s⁻¹.

What follows are binders tested against T2, biotinylated cTfR1 (Acro Bio p/n TFR-C8249) (cynomolgus monkey, UniProt H9EXL1 89-760 (rhesus entry), biotinylated; site not stated) in the same assay as above.
T2 construct: Bought reagent of the BLI assay
T2 sequence (chain, as listed by the source): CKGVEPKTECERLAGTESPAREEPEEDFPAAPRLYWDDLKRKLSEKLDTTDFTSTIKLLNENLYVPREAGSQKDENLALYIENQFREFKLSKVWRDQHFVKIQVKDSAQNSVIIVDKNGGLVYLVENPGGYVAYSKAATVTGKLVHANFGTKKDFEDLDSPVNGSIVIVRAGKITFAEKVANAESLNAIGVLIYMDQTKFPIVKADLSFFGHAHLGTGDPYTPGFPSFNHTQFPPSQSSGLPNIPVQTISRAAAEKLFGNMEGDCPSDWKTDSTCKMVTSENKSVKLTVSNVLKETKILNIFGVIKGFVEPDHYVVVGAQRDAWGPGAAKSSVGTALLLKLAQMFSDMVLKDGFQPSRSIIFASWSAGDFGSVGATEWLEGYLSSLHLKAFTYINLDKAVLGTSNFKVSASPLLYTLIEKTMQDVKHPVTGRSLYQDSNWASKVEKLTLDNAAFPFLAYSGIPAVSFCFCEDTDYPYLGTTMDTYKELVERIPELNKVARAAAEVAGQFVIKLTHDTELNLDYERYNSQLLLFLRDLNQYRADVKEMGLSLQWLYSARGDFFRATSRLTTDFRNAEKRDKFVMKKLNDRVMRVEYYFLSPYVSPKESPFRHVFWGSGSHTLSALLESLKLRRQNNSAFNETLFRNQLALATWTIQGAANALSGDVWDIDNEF
Description: Samples were analyzed via Bio-Layer Interferometry (BLI) to determine kinetics against cynomolgus monkey transferrin receptor 1 (cTfR1). Briefly, an Octet RH16 (Sartorius) was used for BLI measurements using streptavidin biosensors (Sartorius p/n 18-5019) to irreversibly immobilize biotinylated cTfR1 (Acro Bio p/n TFR-C8249). […] Sample diluent was prepared in house and is composed of 10 mM PBS pH 7.4 (150 mM NaCl), 0.01% BSA, 0.002% Tween 20, and 0.01% kathon. A 96-well plate was used for analysis, filled with required samples solutions and a row of 10 μg/mL cTfR1 for loading of the streptavidin sensors. For each sample, one well was reserved for a reference sensor control (non-specific binding evaluation with no cTfR1 on surface in highest sample concentration) and a sample reference (buffer only on a cTfR1 loaded sample). One well was also reserved for a second replicate of one of the five concentrations to evaluate sensor and method variability. Eight channels were used for the highest sensitivity offered by the Octet RH16. For each assay performed, the steps were as follows: a sensor check for baseline evaluation of sensor alone in buffer was performed for 30 seconds, followed by loading of the cTfR1 for 60 seconds, then a baseline check for 90 seconds to verify stability of cTfR1 immobilized to sensor surface, then sample association for 180 seconds, and finally sample dissociation for 300 seconds. A shake speed of 1000 was used for all steps. Sample results were analyzed in Octet Analysis software.
With B1 the Kd was 6.85 nM, the koff was 0.0017 s⁻¹ and the kon was 248000 M⁻¹ s⁻¹.
B2 showed a Kd of 25.1 nM, a koff of 0.00732 s⁻¹ and a kon of 292000 M⁻¹ s⁻¹.
B3 showed a Kd of 8.89 nM, a koff of 0.00221 s⁻¹ and a kon of 249000 M⁻¹ s⁻¹.
Binder B4 has a Kd of 8.37 nM, a koff of 0.0022 s⁻¹ and a kon of 263000 M⁻¹ s⁻¹.
B5 was tested, and the Kd was 10.8 nM, the koff was 0.00398 s⁻¹ and the kon was 368000 M⁻¹ s⁻¹.
B6 gave a Kd of 11 nM, a koff of 0.00263 s⁻¹ and a kon of 238000 M⁻¹ s⁻¹.
B7 gave a Kd of 9.58 nM, a koff of 0.00245 s⁻¹ and a kon of 256000 M⁻¹ s⁻¹.
B8 showed a Kd of 5.63 nM, a koff of 0.0013 s⁻¹ and a kon of 231000 M⁻¹ s⁻¹.
For B9, the Kd was 5.96 nM, the koff was 0.0019 s⁻¹ and the kon was 319000 M⁻¹ s⁻¹.
B10 was tested, and the Kd was 5.02 nM, the koff was 0.0019 s⁻¹ and the kon was 378000 M⁻¹ s⁻¹.
For B11, the Kd was 16.9 nM, the koff was 0.00413 s⁻¹ and the kon was 244000 M⁻¹ s⁻¹.
Binder B12 has a Kd of 12.2 nM, a koff of 0.00321 s⁻¹ and a kon of 264000 M⁻¹ s⁻¹.
Work on B13 yielded a Kd of 10 nM, a koff of 0.00335 s⁻¹ and a kon of 334000 M⁻¹ s⁻¹.
Work on B14 yielded a Kd of 9.11 nM, a koff of 0.00252 s⁻¹ and a kon of 276000 M⁻¹ s⁻¹.
With B15 the Kd was 9.23 nM, the koff was 0.00321 s⁻¹ and the kon was 348000 M⁻¹ s⁻¹.
Binder B16 has a Kd of 18.1 nM, a koff of 0.00429 s⁻¹ and a kon of 234000 M⁻¹ s⁻¹.
